Measurements from patent US20240158493A1 (MYTHIC THERAPEUTICS, published 2024).
Residue numbers refer to the chain shown, from its start.

B1: samrotamab (antibody, V domains shown)
VH: EVQLVQSGAEVKKPGASVKVSCKASGYKFSSYWIEWVKQAPGQGLEWIGEILPGSDTTNYNEKFKDRATFTSDTSINTAYMELSRLRSDDTAVYYCARDRGNYRAWFGYWGQGTLVTVSS
VL: DIQMTQSPSSLSASVGDRVTITCRASQDISNYLNWYQQKPGGAVKFLIYYTSRLHSGVPSRFSGSGSGTDYTLTISSLQPEDFATYFCQQGEALPWTFGGGTKVEIK
notes: IgG; the entries called heavy and light chain hold the variable domains only; also called MYT0963
B2: MYT0971 (antibody, V domains shown)
VH: B1 VH with W33H
VL: B1 VL
notes: IgG

Target: T1, LRRC15 on U-87 MG (LRRC15+) cells (human, UniProt Q8TF66 22-581)
T1 construct: Endogenous LRRC15 of U-87 MG cells (ATCC HTB-14); also called cell surface LRRC15
T1 sequence: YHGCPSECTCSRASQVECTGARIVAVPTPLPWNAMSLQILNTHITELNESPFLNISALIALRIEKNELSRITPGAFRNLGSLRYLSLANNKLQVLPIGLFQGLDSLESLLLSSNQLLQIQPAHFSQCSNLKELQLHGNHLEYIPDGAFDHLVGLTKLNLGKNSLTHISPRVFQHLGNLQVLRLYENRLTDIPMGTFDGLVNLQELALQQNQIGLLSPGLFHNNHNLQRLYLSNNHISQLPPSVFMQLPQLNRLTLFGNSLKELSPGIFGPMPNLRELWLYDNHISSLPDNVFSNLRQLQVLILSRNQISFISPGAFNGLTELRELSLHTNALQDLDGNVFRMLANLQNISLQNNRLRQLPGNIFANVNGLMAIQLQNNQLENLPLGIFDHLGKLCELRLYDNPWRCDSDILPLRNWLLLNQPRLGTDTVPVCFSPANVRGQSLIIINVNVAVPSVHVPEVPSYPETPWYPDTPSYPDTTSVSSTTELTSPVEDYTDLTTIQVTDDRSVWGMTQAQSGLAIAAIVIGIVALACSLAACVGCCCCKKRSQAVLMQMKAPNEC
Test: flow cytometry on U-87 MG (LRRC15+) cells, 60 nM to 1 pM
Description: FIGS. 40a-40b: Characterization of binding affinity for anti-LRRC15 mAbs. Anti-LRRC15 mAbs were assayed for their binding to U-87 MG (LRRC15+) cells.
Binding affinity of selected LRRC15 pH engineered antibody variants from Example 9 were measured on U-87 MG (LRRC15+) cells. 100,000 U-87 MG cells (ATCC HTB-14) were seeded per well in a 96 well deep well plate. Samrotamab and a pH engineered antibody variant were serially diluted at a 1:3 dilution in ice cold FC buffer (phosphate buffered saline (PBS), pH 7.4+2 mM ethylenediaminetetraacetic acid (EDTA)+2% (v/v) HI FBS). The plates were spun at 2,000 RPM for 2 minutes, the supernatant was removed, and 100 μL of diluted antibody was added to each well with final concentration ranging from 60 nM to 1 pM and incubated for 2 hours at 4° C. Post incubation, the cells were spun at 2000 rpm for 2 min and supernatant was discarded. Cells were washed twice with 500 μL of ice-cold FC buffer and resuspended with 100 μL of FC buffer. […] Post incubation, cells were washed with FC buffer and resuspended in 100 μL of FC buffer to read on a BD Accuri C6 flow cytometer. Binding affinity was measured as a dissociation constant KD by GraphPad Prism assuming Michaelis-Menten binding kinetics.

Row | Binder | IC50
1 | B1 | 0.228 nM
2 | B2 | 0.484 nM
